{"source": "patent US6906179B2", "about": "“Antibody to SNIP1” (The General Hospital Corporation, priority 1999, dated 2005)", "molecules": {"B1": {"name": "BMP7: OP-1 (BMP7), bone morphogenetic protein, TGF-β family ligand (protein, UniProt P18075 293-431, looked up)", "Bone morphogenetic protein 7": "STGSKQRSQNRSKTPKNQEALRMANVAENSSSDQRQACKKHELYVSFRDLGWQDWIIAPEGYAAYYCEGECAFPLNSYMNATNHAIVQTLVHFINPETVPKPCCAPTQLNAISVLYFDDSSNVILKKYRNMVVRACGCH"}, "B2": {"name": "GDNF: glial cell line-derived neurotrophic factor, member of the TGF-β superfamily (protein, UniProt P39905 78-211, looked up)", "Glial cell line-derived …": "SPDKQMAVLPRRERNRQAAAANPENSRGKGRRGQRGKNRGCVLTAIHLNVTDLGLGYETKEELIFRYCSGSCDAAETTYDKILKNLSRNRRLVSDKVGQACCRPIAFDDDLSFLDDNLVYHILRKHSAKRCGCI"}, "B3": {"name": "TGF-β3: TGF-β isoform (protein, UniProt P10600 301-412, looked up)", "Transforming growth factor …": "ALDTNYCFRNLEENCCVRPLYIDFRQDLGWKWVHEPKGYYANFCSGPCPYLRSADTTHSTVLGLYNTLNPEASASPCCVPQDLEPLTILYYVGRTPKVEQLSNMVVKSCKCS"}}, "key": {"SNIP-1 protein level": {"tested_on": "SNIP-1 protein level", "assay": "ALK3Q233D-induced degradation of SNIP-1 in transfected COS cells, Western blot", "type": "cell-based", "details": "COS cells transfected with Smad1, DPC4, antizyme and BMP type II and type I (ALK3) receptors, treated with BMP7 (not shown)", "source_text": "The novel Smad1 interactor is a nuclear proteip (termed as Smad1 Nuclear Interactor Protein 1, SNIP-1, SEQ ID No. 3), with a carboxyterminal domain that is highly homologous to the aminoterminus of the nuclear inhibitor of protein phosphatase 1 (NIPP-1) (Wang & Lechleider, unpublished) (FIG. 31A & C). NIPP-1 (VanEynde et al., 1995) is known to be rapidly processed into smaller heat-stable intermediates, a process that may be mediated by proteasome (see Discussion in Jagiello et al., 1995). SNIP-1 is a strong interactor of Smad1, that also binds to both antizyme and HsN3 in the yeast two-hybrid assays (FIG. 311B).\nForty-eight hours after transfection, COS cells were lysed in an equal volume of lysis buffer (300 ul/plate), and the total protein concentration of each sample was measured. No major difference in protein concentration was detected among the lysates. The protein level of SNIP-1 in 100 ug of total protein lysate was determined by Western blot using anti-T7 monoclonal antibody. […] Such a decrease is dependent upon the coexpression of Smad1, DPC4 and antizyme, since replacing each of these three proteins with an unrelated protein (β galactosidase) abolishes such a decrease in ALK3Q233D transfected cells (FIG. 31D, top panel, lanes 9-14). […]"}, "rat sympathetic neurons": {"tested_on": "rat sympathetic neurons", "assay": "OP-1 induced dendritic growth of rat sympathetic neurons", "type": "cell-based", "details": "sympathetic neurons", "method": "If Smad1 and DPC4 signal through proteasome mediated proteolysis, proteasome inhibitors should block the signaling of BMPs. We thus directly tested the effects of the proteasome inhibitors on the signaling pathways of BMPs that signal via Smad1 activation. […] The EC50 for the inhibitory activity of lactacystin was ˜100 nM and maximal effects were obtained with 4-6 hour pretreatments (not shown).\nTo determine the time course of sensitivity to lactacystin with respect to the signaling pathway of OP-1, lactacystin was added to the media at various time points after the addition of OP-1 (FIG. 32, bottom panel B)."}, "[1]": {"tested_on": "HsN3 and Smad1 localization", "assay": "Localization of HsN3 and Smad1 in transfected COS cells, confocal microscopy", "type": "cell-based", "source_text": "Since the activation of BMP type I receptors, either by BMP ligands in the presence of the type II receptor, or by the presence of a point mutation (Q233D), can induce the translocation of Smad1 from the cytoplasm to the nucleus (Hoodless et al., 1996, Wang et al., unpublished data), we examined whether the intracellular localization of the Smad1 interactor HsN3 is also regulated by the constitutively activated BMP type I receptor ALK3Q233D. The localization of endogenous HsN3 in COS cells in the presence or absence of activated Smad1 was studied by immunocytochemistry and confocal microscopy (FIG. 28). In untransfected COS cells, weak signals from endogenous HsN3 were detected in both the cytoplasm and the nucleus, with a monoclonal anti-HsN3 antibody and a FITC-conjugated anti-mouse secondary antibody (FIG. 28A). […]\nTo directly study how BMPs regulate the localization of HsN3, COS cells were transfected with the wild type BMP type I receptor ALK3 the BMP type II receptor and Smad1. […] In cells not treated with BMP7, the endogenous HsN3 produced a weak signal in both the cytoplasm and the nucleus that was detected with a FITC conjugated secondary antibody (FIG. 28D1), while the expressed Smad1 also produced a signal located throughout the transfected cells that was detected by Rodamine conjugated secondary antibody (FIG. 28D2). […]"}, "nigral dopamine neurons": {"tested_on": "nigral dopamine neurons", "details": "cited from earlier work"}}, "note": "Where two headings read alike, the source gives them in different places.", "data": [{"molecule": "B1", "values": [{"measurement": "degradation of SNIP-1", "setting": "SNIP-1 protein level", "value": "degradation of SNIP-1 has also been observed"}, {"measurement": "Smad1 localization upon OP-1 treatment", "setting": "rat sympathetic neurons", "value": "rapid nuclear translocation of Smad1"}, {"measurement": "HsN3 signal", "setting": "[1]; 30 mins after BMP7 treatment (20 ng/ml)", "value": "only a nuclear HsN3 signal of increased intensity was detected"}, {"measurement": "endogenous HsN3 and overexpressed Smad1 localization", "setting": "[1]; 60 mins after BMP7 treatment (20 ng/ml)", "value": "accumulated in the nucleus"}]}, {"molecule": "B2", "values": [{"measurement": "nigral cell death and atrophy", "setting": "nigral dopamine neurons; intracerebral administration for 4 weeks following lesioning", "value": "completely prevented nigral cell death and atrophy"}, {"measurement": "nigral cell death and atrophy", "setting": "nigral dopamine neurons; single 10 μg injection at 1 week post-lesion", "value": "partial protective effect"}]}, {"molecule": "B3", "values": [{"measurement": "nigral cell death or atrophy", "setting": "nigral dopamine neurons; similar dosing strategies", "value": "no effect"}]}]}
